Laboratory results published in the RNAGym collection of RNA variant scans (doi:10.7554/elife.90254).

B1: LINE1-full (parent)
chain: UACGUAGGUGGUUUUCCCCUGAUAGUGCUAAGGGGGCCUGGAAGUUUGGACUGGGCAGAGCUCAACACAGCGUGGCAAAGUGGCUGUGGCUAGACUGCCUCUCUGGAUUCCUCGUCACUCAGCAGGGCAUCUCUGAGAGAAAUGCC

Variants of: B1
Assay: self-cleavage, relative activity (ratio to wild type); higher = more cleavage; in vitro, sequencing; the parent is a self-cleaving ribozyme

Row | Variant | self-cleavage
1 | U20G U85A | 0.24
2 | A22U A141G | 1.29
3 | A22U A117G | 0.65
4 | A22G A107G | 0.82
5 | G21A U81A | 1.8
6 | A22G G35U | 0.6
7 | A22U G55A | 0.37
8 | G21A C28U | 1.22
9 | A22U G106U | 1.72
10 | G21A A140G | 1.3
11 | A22G C116U | 0.24
12 | G21A A129U | 1.17
13 | A22C U143A | 1.53
14 | G21A U102A | 1.14
15 | U23C A57G | 1.2
16 | U23C A57U | 0.18
17 | U23C U91G | 0.15
18 | U23C U91C | 1.18
19 | U23A A117G | 2.16
20 | A22U C123A | 1.17
21 | G21A U104A | 1.27
22 | A22U G75A | 1
23 | A22U A30G | 1.98
24 | A22G C66U | 0.07

Row | Variant | self-cleavage
25 | U23A U29C | 1.02
26 | U23A U29A | 1.24
27 | A22U G126A | 1.5
28 | A22U A107U | 1.96
29 | A22U A67G | 0.41
30 | A22G U29C | 1.42
31 | U20C U115A | 1.54
32 | A22G U119G | 1.51
33 | A22U U104C | 1.31
34 | A22U U104A | 1.01
35 | A22G G139A | 1.82
36 | U20G A22G | 0.41
37 | A22U U23C | 0.87
38 | U23C G27A | 1.8
39 | A22U U91C | 0.2
40 | A22U U91A | 0.3
41 | A22G U39C | 1.14
42 | A22G U39A | 1.72
43 | A22G A67C | 0.23
44 | G21A U96A | 0.06
45 | G21A G33A | 1.39
46 | A22G U45A | 0.94
47 | A22G U45G | 0.82
48 | U23C U87C | 0.25

Row | Variant | self-cleavage
49 | A22U A65G | 0.14
50 | G21U U115C | 2.18
51 | U20G A121G | 1.27
52 | A22G A129G | 1.45
53 | A22G A129U | 0.67
54 | A22U G114A | 1.44
55 | U23A U46A | 0.6
56 | U20C U91C | 0.76
57 | U20C U91A | 0.55
58 | U23C C63U | 0.35
59 | U20C U134A | 0.96
60 | U20C U134G | 0.77
61 | U20C U134C | 1.57
62 | A22U G40U | 0.87
63 | U23C A78U | 2.06
64 | U23C C56U | 0.23
65 | A22G G72A | 1.94
66 | A22G U96A | 0.13
67 | A22G A69C | 0
68 | U23C U62C | 0.04
69 | A22U | 1.11
70 | A22C | 1.51
71 | A22G | 1.12
72 | A22U U62A | 0

Row | Variant | self-cleavage
73 | A22G G82A | 1.94
74 | U23C C118U | 1.81
75 | A22U U100C | 1.54
76 | U20G A67U | 0.11
77 | A22G A142G | 1.23
78 | A22U U26A | 0.5
79 | U20G U81C | 1.08
80 | U20G U81A | 2.03
81 | U23C G72U | 0
82 | U23C A79G | 1.4
83 | U23C A79U | 2.06
84 | A22U A129G | 2.09
85 | A22G U108A | 1.74
86 | U23C A141G | 1.4
87 | A22G A94C | 0.07
88 | A22G A94U | 0.37
89 | A22G A94G | 0.56
90 | U20C U104C | 1.51
91 | A22U A121G | 1
92 | A22U U39C | 1.2
93 | A22G A140U | 1.05
94 | A22G A140G | 0.8
95 | G21U U85G | 0.08
96 | A22G A43G | 1.02

Row | Variant | self-cleavage
97 | U23C A64G | 0.35
98 | U20G G34A | 0.69
99 | U23A U81A | 1.7
100 | G21A U109C | 0.95
101 | G21A U109A | 0.64
102 | A22G G86A | 0.07
103 | A22C A77U | 0.35
104 | A22G U143C | 0.97
105 | A22G U143A | 1.19
106 | U23C A65C | 0
107 | A22U U46A | 1.2
108 | U23A C98U | 0.26
109 | G21A A77G | 2.18
110 | G21A A77U | 1.18
111 | U23C U46C | 1.52
112 | U23C U46A | 0.92
113 | U23A A141G | 1.21
114 | U20G A57U | 0.21
115 | A22C A142G | 1.27
116 | U20G | 1.1
117 | U23C G35A | 1.4
118 | U23A A124G | 0.94
119 | G21U U119C | 1.84
120 | G21A A117U | 1.55

Row | Variant | self-cleavage
121 | A22U G25A | 0.7
122 | U20G C95U | 0.29
123 | G21U U91C | 0.45
124 | U23A A142G | 1.12
125 | A22U A50U | 0.39
126 | G21A C146U | 1.56
127 | G21A A31U | 1.43
128 | A22U C38U | 1.18
129 | U23C A117U | 1.75
130 | U23C A117G | 1.27
131 | U20C U132G | 0.46
132 | U23C A138G | 1.95
133 | A22U A138C | 0.92
134 | A22U A138G | 1.09
135 | U20C U108C | 1.62
136 | U23A A65U | 0.53
137 | G21U A77G | 1.7
138 | A22C A50G | 1.86
139 | U23A A136G | 1.31
140 | U23A A136U | 1.7
141 | G21A U39C | 0.78
142 | U23C U26C | 1.29
143 | U23A U104C | 0.84
144 | A22U U130A | 1.38

Row | Variant | self-cleavage
145 | A22U A77U | 0.62
146 | A22U A77G | 2.23
147 | A22U U102A | 1.41
148 | U23C G93U | 0.04
149 | U23A U47C | 1.88
150 | U23A U108A | 1.44
151 | A22C A140G | 1.65
152 | U20G U112C | 0.76
153 | A22G A42U | 1.31
154 | A22G A42G | 0.93
155 | A22G A79G | 0.76
156 | A22U U85A | 0.08
157 | A22G C71U | 0.55
158 | G21A U85C | 0.18
159 | A22G A77C | 1.09
160 | A22G A77U | 0.79
161 | A22G A77G | 1.77
162 | U23C A121U | 0.66
163 | U23C A121G | 2
164 | A22G G36A | 1.36
165 | A22U A24G | 1.95
166 | A22G U47C | 1.18
167 | G21C U143C | 1.97
